Measured values from US20260028422A1 (CONCEPT TO MEDICINE BIOTECH, published 2026).
Like-named read-outs stand apart in the source and are kept apart here.

T1: human MerTK-his protein (human, UniProt Q12866 21-505)
T1 construct: extracellular domain; also called hMerTK-His; human MerTK protein
T1 sequence (looked up): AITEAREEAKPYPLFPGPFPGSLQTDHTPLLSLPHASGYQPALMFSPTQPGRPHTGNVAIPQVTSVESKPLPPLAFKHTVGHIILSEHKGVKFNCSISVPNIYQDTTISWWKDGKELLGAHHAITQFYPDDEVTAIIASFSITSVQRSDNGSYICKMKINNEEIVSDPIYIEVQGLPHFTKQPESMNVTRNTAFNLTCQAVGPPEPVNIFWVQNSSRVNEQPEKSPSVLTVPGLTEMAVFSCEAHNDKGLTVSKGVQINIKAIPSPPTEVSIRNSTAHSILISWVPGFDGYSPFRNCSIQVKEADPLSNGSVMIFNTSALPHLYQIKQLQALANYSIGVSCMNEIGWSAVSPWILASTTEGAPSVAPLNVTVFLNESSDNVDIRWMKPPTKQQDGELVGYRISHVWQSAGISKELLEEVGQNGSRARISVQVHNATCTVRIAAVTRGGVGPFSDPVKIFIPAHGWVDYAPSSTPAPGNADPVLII

T2: human MerTK expressed on cells (human, UniProt Q12866 21-999)
T2 construct: whole, on cells; also called CHO-K1-hMerTK; CHO-K1-MerTK
T2 sequence (looked up): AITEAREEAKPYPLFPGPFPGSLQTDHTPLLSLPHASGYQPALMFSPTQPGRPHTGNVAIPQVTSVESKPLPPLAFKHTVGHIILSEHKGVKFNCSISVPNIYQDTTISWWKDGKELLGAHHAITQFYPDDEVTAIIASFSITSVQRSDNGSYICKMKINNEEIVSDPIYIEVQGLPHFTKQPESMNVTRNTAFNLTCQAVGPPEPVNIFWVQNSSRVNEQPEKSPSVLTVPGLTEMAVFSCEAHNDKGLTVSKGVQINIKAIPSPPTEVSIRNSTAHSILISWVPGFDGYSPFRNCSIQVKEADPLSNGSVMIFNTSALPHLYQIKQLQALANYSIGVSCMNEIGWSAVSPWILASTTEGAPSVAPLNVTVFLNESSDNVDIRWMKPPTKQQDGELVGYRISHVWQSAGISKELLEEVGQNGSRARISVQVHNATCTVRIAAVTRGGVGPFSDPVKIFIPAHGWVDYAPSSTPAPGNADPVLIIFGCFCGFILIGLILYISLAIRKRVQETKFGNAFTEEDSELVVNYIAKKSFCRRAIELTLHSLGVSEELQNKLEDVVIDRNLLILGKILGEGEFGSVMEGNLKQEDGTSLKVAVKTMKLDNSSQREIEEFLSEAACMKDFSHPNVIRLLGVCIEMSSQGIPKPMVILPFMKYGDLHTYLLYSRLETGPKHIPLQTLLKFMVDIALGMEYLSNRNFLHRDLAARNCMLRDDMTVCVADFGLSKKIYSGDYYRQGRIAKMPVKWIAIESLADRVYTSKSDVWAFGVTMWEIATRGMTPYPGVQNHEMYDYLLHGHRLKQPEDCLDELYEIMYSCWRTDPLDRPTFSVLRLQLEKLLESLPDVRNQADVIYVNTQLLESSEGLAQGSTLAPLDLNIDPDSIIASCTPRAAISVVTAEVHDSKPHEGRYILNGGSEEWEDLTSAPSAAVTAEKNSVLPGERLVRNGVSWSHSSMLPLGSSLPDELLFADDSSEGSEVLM


How the values were obtained:
[1] = target: T1, human MerTK-his protein; experiment: ELISA, plate coated with human MerTK-his, OD 450nm
Description: (§1) To evaluate the binding activity, the chimeric mAbs were subjected to ELISA test. Briefly, 96-well plates were coated with human or cyno MerTK-his protein at 2 μg/mL in PBS, 100 μL/well at 4° C. overnight, then blocked with 150 μL/well of 1% BSA. Five-fold dilutions of MerTK antibodies starting from 20 nM were added to each well and incubated for 1 hour at room temperature. The plates were washed with PBS/Tween-20 and then incubated with goat anti-human IgG Fe antibody conjugated with Horse Radish Peroxidase (HRP) for 30 minutes (mins) at room temperature. After washing, the plates were developed with TMB substrate and subsequent stop solution was added to complete the reaction. The signal from each well was read by spectrophotometer at OD 450 nm.
(§2) To evaluate the antigen binding activity, the humanized antibodies were subjected to ELISA test as described before.

[2] = target: T1, human MerTK-his protein; experiment: SPR Biacore 8K, antibody captured on Protein A chip, 50 nM antigen
Description: To explore whether the humanized antibodies could maintain their binding kinetics, affinity ranking were performed with Biacore™. The antibodies were captured with a Protein A chips. Human MerTK-his protein at 50 nM was injected over captured antibodies for 180 s at a flow rate of 30 μL/min. The antigen was allowed to dissociate for 600 s. The experiment was carried out on a Biacore™ 8K. Data analysis was carried out using Biacore™ 8K evaluation software.

[3] = target: T2, human MerTK expressed on cells; experiment: FACS on CHO-K1 cells overexpressing human MerTK, MFI (AF488)
[4] = target: T1, human MerTK-his protein; experiment: ELISA, plate coated with human MerTK-his, OD 450nm; remark: listed apart in the source
Description: as §1, §2

[5] = target: T2, human MerTK expressed on cells; experiment: FACS on CHO-K1 cells overexpressing human MerTK, MFI (AF488); remark: listed apart in the source

EC50 [1]	Kd [2]	koff [2]	kon [2]	EC50 [3]	EC50 [4]	EC50 [5]	Binder
0.094 nM	2.19 nM	0.000475 s⁻¹	217000 M⁻¹ s⁻¹	0.85 nM	–	–	254B4D9Hu-1 (antibody, V domains shown) VH: QVQLVQSGSELKKPGASVKVSCKASGYTFTAYGMSWVKQAPGQGLQWMGWINTYSGVPTYTDDFKGRFVFSLDTSVSTAFLQISSLKAEDTAVYFCARRAAVVAKYWYFDVWGQGTTVTVSS VL: DIQMTQSPSSLSASVGDRVTITCKSSQDINKRISWYQQKPGKAPKLLIHSTSSLQPGVPSRFSGSGSGRDFTFTISSLQPEDIATYFCLQYDNLLTFGQGTKLEIK
0.064 nM	10.9 nM	0.000592 s⁻¹	54100 M⁻¹ s⁻¹	1.1 nM	–	–	254B4D9Hu-2 (antibody, V domains shown) VH: QVQLVQSGHEVKQPGASVKVSCKASGYSFTAYGMSWVKQAPGQGLQWMGWINTYSGVPTYTDDFKGRFVFSLDTSASTAFLQISSLKAEDMAMYFCARRAAVVAKYWYFDVWGQGTTVTVSS VL: DIQMTQSPSSLSASVGDRVTITCKSSQDINKRISWYQQKPGKAPKLLIHSTSSLQPGVPSRFSGSGSGRDFTFTISSLQPEDIATYFCLQYDNLLTFGQGTKLEIK
–	1.64 nM	0.00031 s⁻¹	189000 M⁻¹ s⁻¹	–	0.052 nM	0.19 nM	265F11B5Hu-12 (antibody, V domains shown) VH: QVQLVQSGAEVKKPGASVKVSCKASGYTFTTYDINWVRQAPGQGLEWIGWIYPRDGYTKYNEKFKGRATLAVDTSTSTAYMELRSLRSDDTAVYFCTRGYYDNLYYFDYWGQGTTVTVSS VL: EIVLTQSPDFQSVTPKEKVTITCSASSIISSNYFHWYQQKPDQSPKLLIYRTSNLASGVPSRFSGSGSGTDYTLTINSLEAEDAATYYCQQGRSVPLTFGQGTKLEIK
